In the supplement of paper PMC11865577:

Columns and labels:
Test in all cases: pull-down binding Z-score (relative to library population); higher = stronger binding
Conditions in all cases: RNA library: Library-2
[1] = system: TO-3-N3 (biotin conjugate)
Summary of the method: (§1)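 Cy5- or Cy3-end-labelled RNA library (1 μg) was heat-folded in phosphate/NaCl/KCl buffer and incubated 60 min at 25 °C with streptavidin beads carrying 100 pmol biotin-conjugated small molecule. After three washes, bound RNA was eluted in hot SDS and hybridised 20 h at 55.5 °C to a DNA barcode microarray. Binding was scored by subtracting a beads-only control, averaging barcoded replicate probes after dropping highest and lowest, and converting to a Z-score against library mean and standard deviation.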

[2] = system: TO-3-N3-2 (biotin conjugate)
Summary of the method: as §1

TO-N3 (biotin conjugate) = system: TO-N3 (biotin conjugate)
Summary of the method: as §1

[3] = system: TO-N3-2 (biotin conjugate)
Summary of the method: as §1

Row | Sequence | pull-down binding Z-score [1] | pull-down binding Z-score [2] | pull-down binding Z-score (TO-N3 (biotin conjugate)) | pull-down binding Z-score [3]
1 | GAUCUAAAACCAGUC [DMSMaPseq_invitro_SARS-CoV-2_Motif_121] | -0.0402 | 0.0363 | -0.0985 | -0.546
2 | GAUCUCUUGUAGAUC | 0.682 | 0.0231 | 0.342 | -0.498
3 | GAUGAGUACGAACUUAUGUACUCAUU | -0.907 | -0.473 | -1.25 | -0.762
4 | GAUGCUGUUGUGUGUUUCAAUAGCACUUAUGCAUC | -0.907 | -0.542 | -0.937 | -0.931
5 | GAUGGCACUUGUGGCUUAGUAGAAGUUGAAAAAGGCGUUUUGCCUCAACUUGAACAGCCCUAUGUGUUCAUC | -0.665 | -0.0725 | -0.48 | 0.432
6 | GAUGGCUUUCCUUGAGGAAUCCCAUC [IAV_invivo_PB1_2_Motif_6+IAV_invivo_PB1_2_Motif_6] | -1.04 | -0.719 | -1.41 | -0.986
7 | GAUGGUCAAGUAGACUUAUUUAGAAAUGCCCGUAAUGGUGUUCUUAUUACAGAAGGUAGUGUUAAAGGUUUACAACCAUC | -0.346 | -0.245 | -0.421 | -0.181
8 | GAUGGUGGCUGUAUUAAUGCUAACCAAGUCAUCGUC | -0.273 | 0.129 | 0.31 | 1.4
9 | GAUGUAAUUAUCUUGGCAAACCACGCGAACAAAUAGAUGGUUAUGUC [DMSMaPseq_invitro_SARS-CoV-2_Motif_374] | -0.928 | -0.326 | -1.03 | -0.828
10 | GAUGUAGAAUUGUUUGAAAAUAAAACAACAUU | -0.783 | -0.136 | -0.878 | -0.444
11 | GAUGUUCUUGUUAACAACUAAACGAACAAUGUUUGUUUUUCUUGUUUUAUUGCCACUAGUCUCUAGUCAGUGUGUUAAUCUUACAACCAGAACUC [DMSMaPseq_invitro_SARS-CoV-2_Multi_63_ComplexLevel_1] | 0.637 | 0.256 | 0.534 | -0.457
12 | GAUUAUGUGUACCUUCCUUACCCAGAUCCAUCAAGAAUCCUAGGGGCCGGCUGUUUUGUAGAUGAUAUCGUAAAAACAGAUGGUACACUUAUGAUU [SHAPE_invitro_SARS-CoV-2_Multi_44_ComplexLevel_1] | 0.359 | 0.262 | 0.661 | 0.0805
13 | GAUUAUUACAGAUC [DMSMaPseq_invitro_SARS-CoV-2_Motif_169] | -0.377 | -0.191 | -0.695 | -1.16
14 | GAUUCAGAUCUUAAUGACUUUGUC [SHAPE_invivo_SARS-CoV-2_Motif_393] | -0.246 | -0.439 | -0.539 | -0.794
15 | GAUUUGGCUACUAACAAUC [SHAPE_invitro_SARS-CoV-2_Motif_40] | 0.705 | 0.126 | 0.624 | -0.0811
16 | GAUUUGUCUUCUACAAUUUGCCUAUGCCAACAGGAAUAGGUUUUUGUAUAUAAUUAAGUUAAUUUUCCUCUGGCUGUUAUGGCCAGUAACUUUAGCUUGUUU | -0.15 | -0.102 | -0.372 | -0.904
17 | GAUUUUGGGACUACCAACUC | -0.579 | -0.384 | -0.683 | -0.581
18 | GCAAACAUACAACGUGUUGU [SHAPE_invitro_SARS-CoV-2_Motif_281] | -0.398 | -0.176 | -0.622 | -0.671
19 | GCAAAUUAAUGC | -0.689 | -0.864 | -1.04 | -1.25
20 | GCAAAUUGCACAAUUUGC | 0.165 | 0.661 | 0.0548 | -0.158
21 | GCAACUUGCUGUUGUUGUUUGUAACAGUUUACUCACACCUUUUGCUCGUUGC | -0.974 | -0.429 | -1.09 | -0.851
22 | GCAAGCUUCGAUAAUUUUAAGUUUGU [SHAPE_invitro_SARS-CoV-2_Motif_120] | 1.04 | 0.402 | 0.816 | -0.0709
23 | GCAAGUUGAAUCUGAUGAUUACAUAGCUACUAAUGGACCACUUAAAGUGGGUGGUAGUUGUGUUUUAAGCGGACACAAUCUUGC | -0.696 | -0.436 | -0.805 | -0.558
24 | GCACACUAGAACCAGAAUAUUUCAAUUCAGUGUGU | -0.957 | -0.413 | -1.2 | -1.18

Row | Sequence | pull-down binding Z-score [1] | pull-down binding Z-score [2] | pull-down binding Z-score (TO-N3 (biotin conjugate)) | pull-down binding Z-score [3]
25 | GCACAUAUAUCUACUAUUGGUGUUUGUUCUAUGACUGACAUAGCCAAGAAACCAACUGAAACGAUUUGUGC | -0.793 | -0.32 | -0.457 | 0.00798
26 | GCACCAUUAUUAUCAGCUGGUAUUUUUGGUGC | -0.619 | -0.502 | -0.921 | -1.18
27 | GCACCUCAUGGUGU | 0.707 | -0.649 | 0.66 | -0.856
28 | GCACGUAGUGUAGCUAGUCAAUCCAUCAUUGCCUACACUAUGUC | 0.288 | 0.0633 | 0.227 | 0.486
29 | GCACUACAGCUAAGGCUAUGGAGC [IAV_invivo_M1_M2_7_Motif_13+IAV_invivo_M1_M2_7_Motif_13] | -0.491 | -0.311 | -0.314 | 0.116
30 | GCACUAUUGCCUUUGGAGGCUGUGUGU [SHAPE_invivo_SARS-CoV-2_Motif_29] | 0.554 | -0.236 | 0.415 | -0.0377
31 | GCACUGACUUGCUUUAGCACUCAAUUUGCUUUUGCUUGUCCUGACGGCGUAAAACACGUCUAUCAGUUACGUGC | 0.239 | -0.234 | 0.281 | -0.056
32 | GCAGACGGGCGAUUUUGUUAAAGCCACUUGC | 0.648 | 0.604 | 0.889 | 1.57
33 | GCAGACUUCAAAGUUUGC | 0.23 | -0.0803 | -0.139 | -1.04
34 | GCAGAGACAGAAGAAACAGCAAACUGUGACUCUUCUUCCUGC | -0.211 | -0.128 | -0.156 | 0.0897
35 | GCAGCAAUAUGC [IAV_invivo_PA_3_Motif_2+IAV_invivo_PA_3_Motif_2] | 0.588 | -0.292 | 0.548 | -0.111
36 | GCAGCCAAACUAAUGGUUGU | 0.609 | 0.228 | 0.574 | 0.312
37 | GCAGGAGCCUUAAAUAAGGCUACUAACAAUGC | 0.214 | -0.0703 | 0.0366 | -0.521
38 | GCAGUAAGUCUGAUACUUACCUG [U1snRNP5ss-9] | 0.85 | 0.129 | 0.947 | 0.892
39 | GCAGUAUAAUUAAUAACUAAUUACUGU [SARS-CoV-2-Conserved-Structured-36_Interval-120-237_Motif_1] | -0.577 | -0.428 | -1.03 | -1.31
40 | GCAGUGGCUAACUAACAUCUUUGGCACUGU | -0.125 | 0.0264 | -0.244 | -0.175
41 | GCAGUUAAAAUGUUUGAUGCUUACGUUAAUACGUUUUCAUCAACUUUUAACGU | -1.09 | -0.145 | -1.37 | -1.09
42 | GCAUACAGUCGCUACAGGAUUGGCAACUAUAAAUUAAACACAGACCAUUCCAGUAGCAGUGACAAUAUUGC [SHAPE_invivo_SARS-CoV-2_Motif_513] | -0.0312 | 0.365 | 0.116 | 0.259
43 | GCAUGAUGUUUCAUCUGC | 1.18 | 0.0512 | 0.951 | -0.496
44 | GCAUUGAUUUAGAUGAGUGGAGUAUGGCUACAUACUACUUAUUUGAUGAGUCUGGUGAGUUUAAAUUGGCUUCACAUAUGU | -0.215 | -0.04 | 0.0261 | 0.256
45 | GCCACAAAGGC [IAV_invivo_PA_3_Motif_6+IAV_invivo_PA_3_Motif_6] | -0.745 | -0.685 | -1.13 | -0.964
46 | GCCACGUAUAAACCAAAUACCUGGUGUAUACGUUGU | 0.576 | -0.377 | 0.17 | -0.78
47 | GCCACUAGUCUCUAGUCAGUGUGUUAAUCUUACAACCAGAACUCAAUUACCCCCUGCAUACACUAAUUCUUUCACACGUGGU [SHAPE_invivo_SARS-CoV-2_Motif_403] | -0.0417 | 0.101 | 0.388 | 0.688
48 | GCCACUUGCGAAUUUUGUGGC | 0.0442 | -0.0945 | -0.312 | -0.997

Row | Sequence | pull-down binding Z-score [1] | pull-down binding Z-score [2] | pull-down binding Z-score (TO-N3 (biotin conjugate)) | pull-down binding Z-score [3]
49 | GCCAGCACAUGGUCCAGCCAAAAACAUGGAGUAUGAUGCUGUUGC [IAV_invivo_PB1_2_Motif_34+IAV_invivo_PB1_2_Motif_34] | -0.602 | -0.346 | -0.304 | 1.43
50 | GCCAGUUGGAGGC [IAV_invivo_PB1_2_Motif_15+IAV_invivo_PB1_2_Motif_15] | -0.0995 | -0.201 | -0.233 | 0.153
51 | GCCAUUGCCGGU [IAV_invivo_HA_4_Motif_15+IAV_invivo_HA_4_Motif_15] | -0.443 | -0.49 | -0.593 | -0.0811
52 | GCCAUUUGUCAUGAUGGAAAAGCACACUUUCCUCGUGAAGGUGUCUUUGUUUCAAAUGGC | -1.16 | -0.592 | -1.39 | -0.949
53 | GCCCCAUUCCUUGAUCGGCUUCGCCGAGAUCAGAAAUCCCUAAGAGGAAGGGGC [IAV_invivo_NS1_NEP_8_Motif_3+IAV_invivo_NS1_NEP_8_Motif_3] | -0.845 | -0.223 | -0.849 | 0.181
54 | GCCCUGGAAUGAUGAUGGGC [IAV_invivo_PB1_2_Motif_20+IAV_invivo_PB1_2_Motif_20] | 0.0132 | 0.012 | 0.138 | 0.65
55 | GCCCUUAUAGGGC [IAV_invivo_NA_6_Motif_5+IAV_invivo_NA_6_Motif_5] | 0.164 | -0.38 | -0.247 | -1.22
56 | GCCGAAUACCAUAAUGAAUCUGGC [SHAPE_invitro_SARS-CoV-2_Motif_29] | -0.597 | -0.529 | -0.479 | -0.0249
57 | GCCGCCACUAGAGGAGCUACUGUAGUAAUUGGAACAAGCAAAUUCUAUGGUGGUUGGC | 0.361 | 0.675 | 0.89 | 1.24
58 | GCCGGAUCAGACCGAGUGAUGGUAUCACCACUGGC [IAV_invivo_PB2_1_Motif_5+IAV_invivo_PB2_1_Motif_5] | -0.361 | -0.146 | -0.143 | 0.505
59 | GCCGGUAGCACACCUUGUAAUGGUGUUGAAGGU [SHAPE_invitro_SARS-CoV-2_Motif_416] | 0.478 | -0.509 | 0.452 | 0.332
60 | GCCUGUGUAAAUGGU [IAV_invivo_NA_6_Motif_8+IAV_invivo_NA_6_Motif_8] | -0.344 | -0.297 | -0.471 | -0.434
61 | GCCUUGAAGCCCCUUUUCUCUAUCUUUAUGCUUUAGUCUACUUCUUGCAGAGUAUAAACUUUGUAAGAAUAAUAAUGAGGC | 0.275 | 0.362 | 0.232 | 0.166
62 | GCGCAGCCAGAAACUGGCAGCGC [mismatch-AA] | -0.468 | -0.365 | -0.528 | -0.354
63 | GCGCAGCCAGAAACUGGCCGCGC [mismatch-AC] | -0.43 | -0.295 | -0.746 | -1
64 | GCGCAGCCAGAAACUGGCGGCGC [mismatch-AG] | 0.114 | -0.168 | 0.0293 | -0.228
65 | GCGCCGCCAGAAACUGGCAGCGC [mismatch-CA] | 0.381 | -0.524 | 0.225 | -1.05
66 | GCGCCGCCAGAAACUGGCCGCGC [mismatch-CC] | -0.796 | -0.533 | -1.08 | -0.608
67 | GCGCCGCCAGAAACUGGCUGCGC [mismatch-CU] | 0.308 | -0.0148 | 0.00381 | -0.671
68 | GCGCGGCCAGAAACUGGCAGCGC [mismatch-GA] | -0.773 | -0.798 | -1.33 | -1.21
69 | GCGCGGCCAGAAACUGGCGGCGC [mismatch-GG] | -0.0922 | -0.302 | -0.309 | -0.598
70 | GCGCGGCCAGAAACUGGCUGCGC [mismatch-GU] | 0.969 | 0.0256 | 0.831 | -0.388
